Assay results as given in patent US10513702B2, “Synthetic hammerhead ribozymes with ligand-responsive tertiary interactions” (The Board of Trustees of the Leland Stanford Junior …, priority 2015, dated 2019).
Residue numbers refer to the chain shown, from its start.

Columns and labels:
[1] = tested on: GFP reporter transcript (device in 3′ UTR; GFP/mCherry two-color reporter construct); experiment: Flow cytometry validation of reconstructed switch/ribozyme sequences in two-color reporter plasmid; assay type: cell-based, budding yeast strain W303a; details: for μ (-tgt), median GFP/mCherry ratio (basal level): absence of target ligand, at least 3 independent transformants, ± standard error of the mean
Source text: The RNA devices were individually synthesized, integrated into the two-color characterization plasmid, and assayed in yeast via flow cytometry. The μ values obtained from flow cytometry analysis of the reconstructed sequences are tightly correlated with those obtained through the FACS-Seq analysis (FIG. 3a; R^2=0.98). We compared the validated activation ratios (μ−target/μ+target) for several of the best performing switches from the tertiary interaction switch libraries with those from previously optimized RNA devices that function through secondary structure rearrangements (FIG. 3b, Table 1).
Specific switch sequences were synthesized from overlapping oligonucleotides using overlap-extension PCR as described for the device library constructions. These were gap-repair transformed into the yeast two-color screening plasmid along with control plasmids by the lithium acetate/single-stranded carrier DNA/polyethylene glycol method, with each switch sequence verified using Sanger sequencing. At least three individual colonies were picked and inoculated in SC-URA media. Cultures were grown overnight, back-diluted 20:1 to an OD600˜0.07 and then grown 6 hrs in the absence and presence of a ligand target, at the same ligand concentrations as used for the FACS-Seq assays. The cells were then spun down and resuspended in an equal volume of 1×PBS buffer (Life Technologies) with 1% BSA (Fraction V, EMD Millipore) and a DAPI viability dye (Life Technologies). GFP was excited at 488 nm and measured with a bandpass filter of 525/50 nm. mCherry was excited at 561 nm and measured with a bandpass filter of 615/20 nm. DAPI was excited at 405 nm and measured with a bandpass filter of 450/50 nm. Prior to each use, voltages of fluorescence PMT detectors were calibrated with MACSQuant calibration beads to fix GFP and mCherry levels. For each culture, 10 μl of sample was analyzed, which captured 50,000-150,000 events while also providing cell density measurements. The data was analyzed using a custom MATLAB program to gate for mCherry expression above the no-color controls and non-saturating values for GFP and mCherry, and then extract μ, the median GFP/mCherry ratio. Since cultures that contain tetracycline produce non-specific fluorescence in the GFP emission region, the μ values for this condition were corrected by subtracting a fixed offset.
Note that the NGS data is based on cells sorted through a FACSAria II Cell Sorter. An in-house flow cytometer (Miltenyi Biotec MACSQuant VYB) was used for validation measurements. The GFP and mCherry levels are given in arbitrary fluorescence units that differ between the two instruments, but in all cases are treated as a linear function of the actual protein levels in order to compute μ. […]

[2] = tested on: GFP reporter transcript (device in 3′ UTR; GFP/mCherry two-color reporter construct); experiment: Flow cytometry dose-response assays on reconstructed theophylline-responsive RNA devices; assay type: cell-based, budding yeast strain W303a; details: theophylline 0-20 mM; 4-parameter logistic fit, Hill slope 1.0; [80% confidence interval]
Experimental: Median GFP/mCherry ratios were computed for at least triplicate independent cultures assayed at theophylline concentrations of 0, 0.16, 0.31, 0.62, 1.25, 2.5, 5, 10, and 20 mM. The data were fit to a 4-parameter logistic model with the Hill slope fixed at 1.0; the 80% confidence interval for the EC50 fit is shown. A range of one standard deviation over the replicates is shown for the mean activity levels and activity ratio.

[3] = tested on: RNA device self-cleavage (ribozyme); experiment: In vitro SPR-based ribozyme cleavage assay; assay type: biochemical; details: 500 μM MgCl2, 25° C.
Experimental: Representative FACS-Seq sort identified theophylline-responsive RNA device cleavage kinetics and ligand sensitivity were determined by surface plasmon resonance (SPR), using previously described protocols. Briefly, the RNA device DNA templates were amplified by PCR (PFU Ultrall HS; Agilent) with primers containing overhangs corresponding to the T7 RNAP promoter and cis-blocking sequences that prevent device cleavage during in vitro T7 transcription (Table 2; SPR templates). A second PCR (KAPA HiFi PCR Kit; Kapa Biosystems) with short primers was performed to enrich the product for full-length sequences (Table 2; SPR_fwd_primer, SPR_rev_primer). […]
SPR-based cleavage assays were performed at various theophylline concentrations to generate dose-response curves. The RNA dissociation rate constant (kd) at each theophylline concentration ([theo]) was fit to the sigmoidal equation kd=kd,min+(kd,max)/(1+[theo]/IC50) using MATLAB, where kd,max and kd,min are the maximum and minimum RNA dissociation rate constants, evaluated in absence of and with the highest theophylline concentration assayed, respectively. […]

## sTRSV: wild-type tobacco ringspot virus hammerhead ribozyme, SEQ ID NO: 7; loop I TGTGCTT, loop II GTGA (DNA GCUGUCACCGGAUGUGCUUUCCGGUCUGAUGAGUCCGUGAGGACGAAACAGC; listed as RNA, chemistry not fully specified) [reference compound]
[1]
  μ (-tgt), median GFP/mCherry ratio (basal level): 0.051±0.003

## sTRSVctl: inactive control ribozyme with scrambled catalytic core, SEQ ID NO: 8 (DNA GCUGUCACCGGAUGUGCUUUCCGGUACGUGAGGUCCGUGAGGACAGAACAGC; listed as RNA, chemistry not fully specified) [reference compound]
[1]
  μ (-tgt), median GFP/mCherry ratio (basal level): 5.8±0.3

B1: L2b8-t47: previously optimized secondary-structure switching theophylline-responsive RNA device, SEQ ID NO: 3 (nucleic acid)
DNA: AAACAAACAAAGCUGUCACCGGAUGUGCUUUCCGGUCUGAUGAGUCCGUUGAGUAUACCAGCAUCGUCUUGAUGCCCUUGGCAGACUGUAUACGGAGGACGAAACAGCAAAAAGAAAAAUAAAAA
modifications: listed as RNA, chemistry not fully specified
[1]; 5 mM vs 0 mM theophylline, ± SEM
  Activation Ratio: 2.8±0.3
[2]
  EC50: 5.7 mM

B2: L2b8: previously optimized secondary-structure switching theophylline-responsive RNA device, SEQ ID NO: 1 (nucleic acid)
DNA: B1 DNA with A52U, G53C, U54C, A85G, C86G, U87A, G88C, U89G, A90G, U91G
modifications: listed as RNA, chemistry not fully specified
[2]
  EC50: 4.9 mM

B3: L2b8-a1: previously optimized secondary-structure switching theophylline-responsive RNA device, SEQ ID NO: 2 (nucleic acid)
chain: AAACAAACAAAGCUGUCACCGGAAUCAAGGUCCGGUCUGAUGAGUCCGUUGUCCAUACCAGCAUCGUCUUGAUGCCCUUGGCAGGGACGGGACGGAGGACGAAACAGCAAAAAGAAAAAUAAAAA
modifications: listed as RNA, chemistry not fully specified
[1]
  μ (-tgt), median GFP/mCherry ratio (basal level): 0.109±0.004
[2]
  EC50: 10.4 mM
[3]; 1 mM theophylline
  kd, ribozyme cleavage (dissociation) rate constant: 0.00283 s⁻¹
[3]; absence of ligand (0 mM theophylline)
  kd, ribozyme cleavage (dissociation) rate constant: 0.01 s⁻¹
